Data on one molecule can be found in patent US20140220017A1 (published 2014).

In test [1] the target is mouse IgG (mouse). Nature of the test: QCM; pH 6.
The target in test [2] is human IgG Fc (human). Nature of the test: QCM; pH 6.
Test [3] has as its target human IgG (human). Put plainly: QCM; pH 6.
Test [4] addresses mouse IgG Fab (mouse). Nature of the test: QCM; pH 6.
The target of test [5] is human IgG Fab (human). Nature of the test: QCM; pH 6.
Test [6] concerns the target mouse IgG (mouse). Put plainly: QCM; pH 7.4.
The target in test [7] is human IgG Fc (human). Put plainly: QCM; pH 7.4.
Test [8] addresses human IgG (human). Nature of the test: QCM; pH 7.4.
The target in test [9] is mouse IgG Fc (mouse). Nature of the test: QCM; pH 7.4.
Test [10] addresses mouse IgG Fab (mouse). Put plainly: QCM; pH 7.4.
Test [11] has as its target human IgG Fab (human). Nature of the test: QCM; pH 7.4.

As usually defined, the Kd is a measure of binding affinity in units of concentration. The low end stands for tighter binding, the high end for weaker binding.

B1: SpGC3 (other)
chain: DAAQPAMAQVKLQQSGAELVRSGTSVKLSCTASGFNIKDSYMHWLRQGPEQGLEWIGWIDPENGDTEYAPKFQGKATFTTDTSSNTAYLQLSSLTSEDTAVYYCNEGTPTGPYYFDYWGQGTTVTVSSGGGGSDIQMTQSPSSLSASVGDRVTITCRASQDIRNYLNWYQQKPGKAPKLLIYYTSRLESGVPSRFSGSGSGTDYTLTISSLQPEDFATYYCQQGNTLPWTFGQGTKVEIKRGGGGSGGRASGGGGSEVQLVESGGGLVQPGGSLRLSCAASGYSFTGYTMNWVRQAPGKGLEWVALINPYKGVSTYNQKFKDRFTISVDKSKNTAYLQMNSLRAEDTAVYYCARSGYYGDSDWYFDVWGQGTLVTVSSGGGGSDIELTQSPAIMSASPGEKVTITCSASSSVSYMHWFQQKPGTSPKLWIYSTSNLASGVPARFSGSGSGTSYSLTISRMEAEDAATYYCQQRSSYPLTFGAGTKLELKRAAAGGSGGTTYKLVINGKTLKGETTTKAVDAETAEKAFKQYANDNGVDGVWTYDDATKTFTVTEGGSHHHHHH
Consider B1, for which the Kd came to 46 nM in [1]; 3.6 nM in test [2]; 5 nM in test [3]; 190 nM in [4]; 150 nM in test [5]; 58 nM in [6]. Also, the Kd was 10 nM in [7]; 6 nM in test [8]; 24 nM in [9]; 190 nM in test [10]; 190 nM in test [11].
